# Experimental data published in patent US6610541B2, “Recombinant, active caspases and uses thereof” (Thomas Jefferson University, priority 1998, dated 2003).
# T1: rev-caspase-6 (Homo sapiens, UniProt P55212)
# T1 sequence (P55212 with tags, fused parts or gaps): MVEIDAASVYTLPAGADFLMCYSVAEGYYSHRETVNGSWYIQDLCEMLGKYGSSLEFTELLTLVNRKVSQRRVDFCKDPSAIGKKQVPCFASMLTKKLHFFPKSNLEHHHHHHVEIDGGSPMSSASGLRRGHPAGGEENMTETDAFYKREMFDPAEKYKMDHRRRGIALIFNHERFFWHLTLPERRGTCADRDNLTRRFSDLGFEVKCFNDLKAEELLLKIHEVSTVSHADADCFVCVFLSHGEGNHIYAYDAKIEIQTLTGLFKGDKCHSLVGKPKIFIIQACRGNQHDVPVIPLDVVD
# T2: rev-caspase-3 (Homo sapiens, UniProt P42574)
# T2 sequence (P42574 with tags, fused parts or gaps): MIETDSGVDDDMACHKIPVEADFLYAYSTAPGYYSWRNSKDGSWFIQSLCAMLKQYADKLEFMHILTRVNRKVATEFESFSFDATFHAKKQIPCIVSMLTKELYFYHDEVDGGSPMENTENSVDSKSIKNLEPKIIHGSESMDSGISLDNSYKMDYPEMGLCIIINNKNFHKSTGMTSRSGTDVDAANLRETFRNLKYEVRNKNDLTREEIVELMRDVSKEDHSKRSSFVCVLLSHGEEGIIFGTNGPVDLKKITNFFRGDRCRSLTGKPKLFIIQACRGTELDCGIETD
# Legend:
# [1] = target: T1, rev-caspase-6; test: Inhibition of rev-caspase-6 induced apoptosis in transfected MCF-7 cells; format: cell-based; set-up: T7-tag (15 residues) (N); made in house; details: co-transfection with 4-fold expression construct
# Method: (§1) FIGS. 4A and B are bar diagrams representing the ability of rev-caspase-3 and -6 to induce apoptosis in MCF-7 cells. MCF-7 cells were transiently transfected with either rev-caspase-3 (FIG. 4A), or rev-caspase-6 (FIG. 4B) expression constructs in combination with 4-fold of CrmA, p35 or Bcl-2 expression constructs, or 20 μM zVAD-fmk. Cells transfected with an empty vector or the wild-type caspase-3 or -6 were used as controls.
# (§2) To express the rev-caspases in mammalian cells and assay their apoptotic activity, they were amplified with the T7-tag primer and the LS-reverse primers using the pET28a constructs as templates, and subcloned into the mammalian double expression vector pRSC-LacZ (MacFarlane et al., J. Biol. Chem., 272: 25417-25420, 1997; Tsang et al., Bio/Technology, 22: 68, 1997). This vector allows the expression of lacZ under the Rous Sarcoma virus promoter, and the test cDNA under the CMV promoter. To assay for apoptosis, MCF-7 or 293 cells were transfected, using the method commercially available as the Lipofect Amine method (Life Technologies, Inc.), with the pRSC-LacZ constructs in the presence or absence of different apoptosis-inhibitors. 30 h after transfection cells were stained with β-galactosidase and examined for morphological signs of apoptosis. […]
# [2] = target: T2, rev-caspase-3; test: Inhibition of rev-caspase-3 induced apoptosis in transfected MCF-7 cells; format: cell-based; set-up: T7-tag (15 residues) (N); made in house; details: co-transfection with 4-fold expression construct
# Method: as §1, §2
# [3] = target: T1, rev-caspase-6; test: Autocatalytic processing of in vitro translated rev-caspase-6 (SDS-PAGE/autoradiography); format: biochemical; set-up: T7-tag (15 residues) (N); made in house; host or cells: in vitro translation in rabbit reticulocyte lysate (TNT Kit, Promega)
# Method: (§3) FIGS. 2B and C are scanned images of autoradiograms representing SDS-PAGE analysis of the autoprocessing of rev-caspase-3 and -6, respectively in the presence of varying levels of selected caspase inhibitors. Rev-caspase-3 (FIG. 2B) or rev-caspase-6 (FIG. 2C) were in vitro translated in the presence of increasing concentrations of DEVD-CHO […]; (SEQ ID NO:52), or zVAD-fmk (0-5 μM). The translation products were then analyzed as in FIG. 2A. WT, wild-type.
# (§4) ^35S-labeled caspases (wild-type and rev-caspases) were obtained by in vitro translation in the presence of ^35S-methionine using a coupled transcription/translation system in rabbit reticulocyte lysate using TNT Kit (Promega) according to the manufacturer's recommendations.
# (§5) To test the effect of selected caspase inhibitors on the autocatalytic activity of rev-caspase-3 and 6, the rev-caspases were translated as in Example 3, but in the presence of varying amounts of inhibitors.
# [4] = target: T2, rev-caspase-3; test: Autocatalytic processing of in vitro translated rev-caspase-3 (SDS-PAGE/autoradiography); format: biochemical; set-up: T7-tag (15 residues) (N); made in house; host or cells: in vitro translation in rabbit reticulocyte lysate (TNT Kit, Promega); details: at the concentration used (zVAD-fmk 0-5 μM); p35 data not shown
# Method: as §3, §4, §5
# [5] = tested on: MCF-7 cells; test: Induction of apoptosis in transfected MCF-7 cells (round blue apoptotic cells); format: cell-based, human; details: 30 h after transfection
# Method: as §1
# To express the rev-caspases in mammalian cells and assay their apoptotic activity, they were amplified with the T7-tag primer and the LS-reverse primers using the pET28a constructs as templates, and subcloned into the mammalian double expression vector pRSC-LacZ (MacFarlane et al., J. Biol. Chem., 272: 25417-25420, 1997; Tsang et al., Bio/Technology, 22: 68, 1997). This vector allows the expression of lacZ under the Rous Sarcoma virus promoter, and the test cDNA under the CMV promoter. To assay for apoptosis, MCF-7 or 293 cells were transfected, using the method commercially available as the Lipofect Amine method (Life Technologies, Inc.), with the pRSC-LacZ constructs in the presence or absence of different apoptosis-inhibitors. 30 h after transfection cells were stained with β-galactosidase and examined for morphological signs of apoptosis. The percentage of round blue apoptotic cells (mean±SD) were represented as a function of total blue cells under each condition (n≧3).
# To determine the apoptotic activity of rev-caspase-3 and 6 in vivo, the rev-caspases were expressed in human MCF-7 cells, transfected as explained above in Example 2.
# [6] = tested on: lamin A; test: Cleavage of in vitro translated lamin A C-terminus by bacterially expressed caspases; format: biochemical; details: BL-21 bacterial extracts, 2 h at 37° C.
# Method: FIGS. 3A and B are scanned images representing the SDS-PAGE analysis of the ability of rev-caspase-3 (imaged by western blot) and -6 (imaged by autoradiogram) to cleave PARP and lamin, respectively. In FIG. 3A purified human PARP was incubated with buffer (lane 1) or BL-21 bacterial extracts prepared from bacteria transformed with caspase-3 (lane 2), rev-caspase-3 (lane 3), caspase-6 (lane 4), rev-caspase-6 (lane 5) constructs or empty pET28a vector (lane 6) for 2 h at 37° C. The reaction products were then analyzed by SDS-PAGE and Western blotting with anti-human PARP antibody. In FIG. 3B a cDNA encoding the C-terminus of lamin A (amino acids) which contain the caspase-6 cleavage site (VEIDA); (SEQ ID NO:116), was amplified by PCR and in vitro translated in the presence of ^35S-methionine. The labeled product was incubated with buffer (lane 1) or the BL-21 bacterial extracts listed above for 2 h at 37° C., and then analyzed by SDS-PAGE and autoradiography. The cleavage products are indicated to the right.
# At limited caspase concentrations, poly(ADP) ribose polymerase (PARP) is specifically cleaved by caspase-3 and 7 but not other caspases. Similarly, lamin is specifically cleaved by caspase-6 but not other caspases. […]
Molecule,effect of overexpression on apoptotic activity of rev-caspase-6 [1],effect of overexpression on apoptotic activity of rev-caspase-3 [2],"inhibitory effect on rev-caspase-6 autocatalytic activity compared with rev-caspase-3 ([3]; at the concentration used (zVAD-fmk 0-5 μM), p35 data not shown)",inhibitory effect on rev-caspase-3 autocatalytic activity compared with rev-caspase-6 [4],apoptosis in transfected cells [5] [%],cleavage of lamin [6],"autocatalytic processing in the in vitro translation reaction (rev-caspase-6 constructs) ([3]; rabbit reticulocyte lysate, 35S-methionine)"
Bc1-2: overexpressed protein that protects against different forms of apoptosis [reference compound],did not significantly reduce,did not significantly reduce,–,–,–,–,–
"baculovirus p35: baculovirus p35, which inhibits the activity of most caspases (protein) MCVIFPVEIDVSQTIIRDCQVDKQTRELVYINKIMNTQLTKPVLMMFNISGPIRSVTRKNNNLRDRIKSKVDEQFDQLERDYSDQMDGFHDSIKYFKDEHYSVSCQNGSVLKSKFAKILKSHDYTDKKSIEAYEKYCLPKLVDERNDYYVAVCVLKPGFENGSNQVLSFEYNPIGNKVIVPFAHEINDTGLYEYDVVAYVDSVQFDGEQFEEFVQSLILPSSFKNSEKVLYYNEASKNKSMIYKALEFTTESSWGKSEKYNWKIFCNGFIYDKKSKVLYVKLHNVTSALNKNVILNTIK",partially protected,partially protected,nearly an equal inhibitory effect,nearly an equal inhibitory effect,–,–,–
"rev-caspase-6: contiguous caspase-6 with small subunit fused N-terminal to large subunit, VEID cleavage site between them (SEQ ID NO:36) (protein, OTHER INFORMATION: Rev-Caspase-6 contructed fro m human caspase-6) MVEIDAASVYTLPAGADFLMCYSVAEGYYSHRETVNGSWYIQDLCEMLGKYGSSLEFTELLTLVNRKVSQRRVDFCKDPSAIGKKQVPCFASMLTKKLHFFPKSNLEHHHHHHVEIDGGSPMSSASGLRRGHPAGGEENMTETDAFYKREMFDPAEKYKMDHRRRGIALIFNHERFFWHLTLPERRGTCADRDNLTRRFSDLGFEVKCFNDLKAEELLLKIHEVSTVSHADADCFVCVFLSHGEGNHIYAYDAKIEIQTLTGLFKGDKCHSLVGKPKIFIIQACRGNQHDVPVIPLDVVD",–,–,–,–,~90,efficiently cleaved lamin,able to undergo autocatalytic processing
